Among the data in the supplement of paper PMC10126150 are switch fluorescence ratio values, retold here.

± gives the standard deviation of the averaged measurements.
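Note: ATP exposure 15 min at 22 °C before imaging.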

The subject of the data set is ATP. Kind of data set: switch fluorescence ratio, 500 uM ATP over buffer (Cy3 cluster intensity, sum of 5 cycles each) (fold (ratio)); higher = stronger signal-on switching upon ATP binding; sequences stand for … in TCGTCGGCAGCGTCAGATGTGTATAAGAGACAGTTTTTTTTTTTTTTTTTTTTTTTTT…TC. The settings on record: aptamer strand: ATP DNA aptamer (quencher-CACCTGGGGGAGTATTGCGGAGGAAGG + anchor), 100 nM annealed; ATP concentration: 500 uM. Summed up: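 For every switch-domain sequence, the fluorescence ratio is the mean of per-cluster values, each being summed target-cycle Cy3 intensity over summed buffer-cycle Cy3 intensity. Clusters outside 100-1000 RFU were excluded. On a modified Illumina MiSeq flow-cell, the Cy3-labelled switching-strand clusters were annealed to 100 nM quencher-labelled ATP aptamer, imaged in selection buffer and then after 15 min with 500 uM ATP at 22 °C. Five such cycles were run, with NaOH stripping and re-annealing between them.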
For the sequence GAGGAGTGGT, the switch fluorescence ratio stood at 0.984 ± 0.015.

Regarding CGCATTGTGG, the switch fluorescence ratio was 1.02 ± 0.042.

For AGGGTTGTGA, the switch fluorescence ratio is 1 ± 0.026.

In the case of GCTAGCCAAA, the switch fluorescence ratio is 0.998 ± 0.011.

Turning to TTTTTTTGCT, the switch fluorescence ratio came to 0.994 ± 0.024.

On to ATCAGGGTGC, for which the switch fluorescence ratio was determined as 1.06 ± 0.051.

As for TTACTGCTCG, the switch fluorescence ratio stood at 1.01 ± 0.03.

In the case of TTAGCAGGTG, the switch fluorescence ratio worked out at 2.78 ± 0.1.

Consider GGGTATGTA, for which the switch fluorescence ratio worked out at 1.01 ± 0.03.

Regarding AAAGCCGAAT, the switch fluorescence ratio came out at 0.99 ± 0.023.

For the sequence GAGTAAAACA, the switch fluorescence ratio was determined as 1.16 ± 0.27.

As to GGTTCCAAAA, the switch fluorescence ratio was found to be 1.02 ± 0.029.

CAGCTGTCGG: the switch fluorescence ratio was found to be 1.1 ± 0.12.

As to TCGGATGCGT, the switch fluorescence ratio came to 1.03 ± 0.035.

Take TCATGGTTG: the switch fluorescence ratio stood at 1.01 ± 0.01.

Turning to ATAGACTTAT, the switch fluorescence ratio worked out at 0.9765 ± 0.0093.

In the case of AGGTTAAGGA, the switch fluorescence ratio stood at 1.04 ± 0.087.

Take ACAGACTATA: the switch fluorescence ratio amounted to 1.094 ± 0.0097.

For TAATTCGGCA, the switch fluorescence ratio amounted to 0.995 ± 0.0044.

On to CGCCTGGCGT, for which the switch fluorescence ratio was found to be 0.9568 ± 0.0077.

For AAAATGGTTG, the switch fluorescence ratio is 1.04 ± 0.032.

Turning to ATGACCCCTC, the switch fluorescence ratio amounted to 1.044 ± 0.007.

AGATCAAGGT: the switch fluorescence ratio is 1.02 ± 0.013.

In the case of CAAAATGCTT, the switch fluorescence ratio was 0.99 ± 0.047.

On to ACAAAATTTT, for which the switch fluorescence ratio stood at 1.03 ± 0.067.

GAGACGGGGG: the switch fluorescence ratio is 1.02 ± 0.033.

Regarding ATCGGGGGCT, the switch fluorescence ratio worked out at 0.98 ± 0.038.

As for ATCGTGGTCA, the switch fluorescence ratio was 0.987 ± 0.018.

For the sequence CGATTCACTT, the switch fluorescence ratio was 1.02 ± 0.021.

For CGGGTAAGTC, the switch fluorescence ratio was found to be 0.995 ± 0.01.

TGATCAAGTG: the switch fluorescence ratio worked out at 0.99 ± 0.049.

On to AATTTAAAG, for which the switch fluorescence ratio stood at 0.992 ± 0.037.

Regarding GGATTGGATG, the switch fluorescence ratio was determined as 0.983 ± 0.046.

On to CATAGCATCC, for which the switch fluorescence ratio turned out to be 1.48 ± 0.2.

TCTTTTCAGC: the switch fluorescence ratio was 0.992 ± 0.045.

With TTTTTGTAAG, the switch fluorescence ratio amounted to 0.998 ± 0.043.

As for TAGGTTGGGT, the switch fluorescence ratio amounted to 0.992 ± 0.0089.

On to TTTTTAAATG, for which the switch fluorescence ratio was found to be 0.991 ± 0.017.

For CTCGAAGTTG, the switch fluorescence ratio was 0.9692 ± 0.0025.

Take TAGGATGGGT: the switch fluorescence ratio stood at 0.99 ± 0.017.

As for TGGGGCCCCA, the switch fluorescence ratio was 1.01 ± 0.046.

Consider ACGTGGTTGA, for which the switch fluorescence ratio amounted to 1.05 ± 0.026.

As for CAGGCCTAGG, the switch fluorescence ratio was determined as 0.946 ± 0.024.

For the sequence TGTTTATCGG, the switch fluorescence ratio came to 0.998 ± 0.041.

Turning to ACTTGTTTAT, the switch fluorescence ratio was 0.981 ± 0.032.

Regarding ATCCGCCGCT, the switch fluorescence ratio came out at 1.72 ± 0.089.

As to TTACACAGGT, the switch fluorescence ratio came out at 1.12 ± 0.067.

With CCGGGATGGT, the switch fluorescence ratio came out at 1.14 ± 0.057.

For the sequence GATTGTATCA, the switch fluorescence ratio came to 0.99 ± 0.014.

On to AGCCAGAGGG, for which the switch fluorescence ratio turned out to be 1.005 ± 0.0055.

As to CATGGCAACG, the switch fluorescence ratio worked out at 0.993 ± 0.038.

Turning to GGATAGCCGA, the switch fluorescence ratio came out at 0.99 ± 0.086.

Take GGGTTTAGAA: the switch fluorescence ratio was 0.979 ± 0.049.

With GGTTTCAGGG, the switch fluorescence ratio came to 0.986 ± 0.013.

With TGCAAAAAAT, the switch fluorescence ratio worked out at 1.02 ± 0.011.

TATTGACAA: the switch fluorescence ratio amounted to 1.02 ± 0.019.

For the sequence TTTATAGGGC, the switch fluorescence ratio was determined as 1.01 ± 0.021.

Consider GTTGGTATTT, for which the switch fluorescence ratio was determined as 0.971 ± 0.023.

Consider GGGTCGGGTA, for which the switch fluorescence ratio was 1.04 ± 0.017.

For AGACGTAGTG, the switch fluorescence ratio was 0.99 ± 0.029.

As for CAGTGGGGGA, the switch fluorescence ratio turned out to be 0.993 ± 0.022.

As for TTATTCAGGA, the switch fluorescence ratio was 1.01 ± 0.029.

Consider TTTGACAAGC, for which the switch fluorescence ratio came out at 1.15 ± 0.18.

GACGTGAGGT: the switch fluorescence ratio was 1.017 ± 0.0012.

For the sequence AATGAGAGTG, the switch fluorescence ratio was found to be 1 ± 0.035.

As for AGGGTGTGTC, the switch fluorescence ratio is 1.007 ± 0.0098.

As for GTGTATAGTT, the switch fluorescence ratio came to 1.02 ± 0.056.
